This note sets out measurements from US20240398964A1, “PEPTIDE FOR PENETRATING BLOOD-BRAIN BARRIER AND USE THEREOF” (NIBEC CO., LTD., priority 2021, published 2024).

Data set [1] in a line: Brain delivery of peptide-antibody complex in normal animals (IVIS organ fluorescence, Optix MX3 3D brain image). Type of data set: in vivo, hairless mouse (SKH-1). Particulars: Cy5.5 labeled, intravenous 4 mg/kg; for fluorescence in the brain (IVIS): FIG. 4(a); for extent of penetration into the brain (three-dimensional image): Optix MX3, FIG. 4(b). How it is done: Cy5.5 labeled SEQ ID NO: 17 peptide for penetrating the blood-brain barrier, Cy5.5 labeled SEQ ID NO: 59 antibody, and the complex of Cy5.5-labeled SEQ ID NO: 17 peptide for penetrating the blood-brain barrier and SEQ ID NO: 59 antibody were injected intravenously at 4 mg/kg each to hairless mouse (SKH-1, female, 6 weeks old, OrientBio), and fluorescence in each organ (brain, liver, lung, spleen, kidney, heart) was measured at excitation: 685 nm and emission: 706 nm using IVIS (Perkin Elmer). In addition, three-dimensional images of the brain alone were measured using Optix MX3 (ART Advanced Research Technologies Inc.).

Data set [2] is described as follows: Concentration in blood and brain tissue of peptide-antibody complex in normal animals (IVIS). Type of data set: in vivo, hairless mouse (SKH-1). How it is done: The control cell permeability peptide (TAT) and antibody of SEQ ID NO: 59 were prepared in the same manner as the expression method in Example 2 and labeled with cy5.5. The complex of the peptide for penetrating the blood-brain barrier of SEQ ID NO: 41 in which CGGGG was introduced in N term and the antibody of SEQ ID NO: 59 prepared in Example 2 was labeled labeled with Cy5.5. The antibody of SEQ ID NO: 59 was labeled with Cy5.5 and injected intravenously into hairless mouse (SKH-1, female, 6 weeks old, OrientBio) at 10 mg/kg each. Concentrations in brain and blood were measured at excitation: 685 nm and emission: 706 nm using IVIS (Perkin Elmer) until day 24, and the results are shown in FIG. 5.

In data set [3] the test system is U87MG-Luc 2 glioblastoma. Kind of data set: Brain tumor animal model, bioluminescence and distribution at tumor site. Type of data set: in vivo, mouse. Particulars: for bioluminescence of U87MG-Luc brain tumor cells: 1 mg/kg intravenous every 3 days, 4 doses, observed 16 days. How it is done: Using a brain tumor animal model, the ability of the complex of the peptide for penetrating the blood-brain barrier and antibody to penetrate the brain, inhibit brain tumors, and be distributed in the brain parenchyma was measured. Specifically, U87MG-Luc 2 (ATCC, HTB-14-LUC2™) cells, a luciferase-expressing U87MG glioblastoma, were cultured in DMEM medium supplemented with 10% FBS and 1% antibiotics. Nude 5- to 7-week-old mouse (Orient Bio) was anesthetized with isoflurane and immobilized using ear bars inside a stereotaxic instrument. After incising the scalp at the surgical site, a hole was made using a sterile drill 2 mm to the right to and 2 mm under the bregma. Then, 1.0×10^5/10 μL U87MG-Luc-2 cells were injected through the above hole with a 26G Hamilton syringe (1 μl/min), and after injection, the hole was closed with bone wax and sutured to close the scalp. The proliferation of transplanted glioblastoma was obtained by injecting D-luciferin potassium (15 mg/mL dissolved in PBS, sigma), a substrate of luciferase, at 150 mg/kg, to a mouse, and sacrificing it after 10 min, and measuring the bioluminescence using IVIS (Perkin Elmer), and the results are shown in FIG. 6.
Starting 4 days after glioblastoma transplantation, 1 mg/kg of the complex of CGGGG-SEQ ID NO: 41 peptide for penetrating the blood-brain barrier and SEQ ID NO: 59 antibody and 1 mg/kg SEQ ID NO: 59 antibody were injected intravenously. The administration interval between doses was every 3 days for a total of 4 doses for 16 days. […] FIG. 6 (a) is the photo of an IVIS observation of bioluminescence of U87MG-Luc cells on day 16. […] After 16 days of bioluminescence observation, the bioluminescence continued to increase in the glioblastoma transplanted and untreated group.
The complex of a peptide for penetrating the blood-brain barrier of CGGGG-SEQ ID NO: 41 labeled with cy5.5 and a SEQ ID NO: 59 antibody was administered to the same animal model 8 hours before sacrifice, and the brain was harvested. After frozen sectioning, the distribution of fluorescence was observed by confocal microscopy.

Setting [4] is: Cy5.5 labeled, intravenous 10 mg/kg.

For the molecule VSRRRRRRRGGRRRRR-VPALR [SEQ ID NO: 17], in data set [1], the “fluorescence in the brain (IVIS)” value is listed as “fluorescence could be observed in the brain” and the “extent of penetration into the brain (three-dimensional image)” value (“extent of penetration into the brain” below) is listed as “the extent of penetration into the brain was large”.

B1: complex of Cy5.5-labeled SEQ ID NO: 17 peptide for penetrating the blood-brain barrier and SEQ ID NO: 59 antibody: complex of SEQ ID NO: 17 blood-brain barrier penetrating peptide and SEQ ID NO: 59 … (conjugate)
chain 1: VSRRRRRRGGRRRRVPALR
chain 2: MAWVWTLLFLMAAAQSIQAEWIKQRPGQGLEWIGVIHPGNGGTNYNENFKGKATLTADKSSSTAYMQLSSLTSDDSAVYFCASGNDGSYWGQGTTVTVSSGGGGSGKGGSGGGGSGGGGSDIELTQSPSSLTVTAGEKVTMSCKSSQSLLNSGDQKIYLTWYQQKPGQPPKLLIYWASTRESGVPDRFTGSVSGTDFTLTISSVQAEDLAVYYCQNDYNYPYTFGGGTKCLEIKRGSENLYFQGGSGKPIPNPLLGLDSTGGSGGSHHHHHH
modifications: Cy5.5 label; conjugated complex
For the molecule B1, in data set [1], the “fluorescence in the brain (IVIS)” value is “fluorescence could be observed in the brain” and the “extent of penetration into the brain” value is “the extent of penetration into the brain was large”.

B2: SEQ ID NO: 59 antibody: antibody represented by amino acid sequence of SEQ ID NO: 59, has therapeutic efficacy in glioblastoma (protein)
chain: B1 chain 2
Regarding B2, in data set [1], the “fluorescence in the brain (IVIS)” value is “fluorescence was not observed in the brain” and the “extent of penetration into the brain” value is “observed to a lesser extent inside the brain”. For the same molecule, the “fluorescence in brain tissue” value in data set [2] (setting [4]) is given as “no fluorescence was measured in brain tissue”. Further, the “time to clearance from the blood” value in data set [2] (Cy5.5 labeled, intravenous 10 mg/kg, measured until day 24) was not above 12 days. In data set [3], the “bioluminescence of U87MG-Luc brain tumor cells” value was “many brain tumor cells survived”.

B3: complex of CGGGG-SEQ ID NO: 41 peptide for penetrating the blood-brain barrier and SEQ ID NO: 59 antibody: SEQ ID NO: 41 peptide with N-terminal linker CGGGG chemically conjugated to antibody of SEQ … (conjugate)
chain 1: VSRRRRRRGGRRRRHAIYPRH
chain 2: B1 chain 2
modifications: N-terminal CGGGG linker; chemical conjugation
Take B3: the “fluorescence in brain tissue, % of the initial dose” value in data set [2] (4 days after intravenous injection, 10 mg/kg) is given as “approximately 7%”. The “blood levels compared with the antibody linked to TAT” value in data set [2] (setting [4]) was “higher”. In addition, the “bioluminescence of U87MG-Luc brain tumor cells” value in data set [3] was “the bioluminescence caused by brain tumor cells decreased”. For the same molecule, the “distribution of fluorescence in the brain (confocal, frozen sections)” value in data set [3] (cy5.5 labeled, administered 8 hours before sacrifice, FIG. 6(c)) is “distributed in the area where the brain tumor occurred”.
